Results taken from US20240269318A1.

How the values were obtained:
Conditions in all cases: remark: other sources report otherwise
[1] = biological target: T1, recombinant human alpha-synuclein aggregates (ab218819) (human), P37840; assay: ELISA on AS aggregates; antibody pre-heated 1 hr at 65 °C, measured immediately
[2] = biological target: T1, recombinant human alpha-synuclein …; assay: super-resolution microscopy; Cy3-SynO4 and Alexa Fluor 488-AS aggregates in differentiated SH-SY5Y cells
[3] = biological target: T1, recombinant human alpha-synuclein …; assay: ELISA on AS aggregates; antibody pre-heated 1 hr at 65 °C, stored overnight at 4 °C, measured the next day
[4] = biological target: T1, recombinant human alpha-synuclein …; assay: super-resolution imaging in differentiated SH-SY5Y cells loaded with AS aggregates; SynO4 delivered by TF-liposomes

B1: SynO4 antibody (Creative Biolabs, USA) (antibody)
chain 1: EVQLVESGGGLVQPKGSLKLSCAASGFTFNTYAMHWVRQAPGKGLEWVARIRSKSSNYATYYADSVKDRFTISRDDSQSMLYLQMNNLKTEDTAMYYCVRPLKWYFDVWGTGTTVTVSS
chain 2: QIVLTQSPAILSASPGEKVTMTCSASSTVNYMHWYQQKSGTSPKIWIYDTSKLASGVPARFSGSGSWTSYSLTISSMEAEDAATYYCQQWNSNPPTFGAGTKLELK
Which maximal activity [1] does the source give for B1 here?
The maximal activity was 22%.

What about the colocalization [2] of the same binder?
Its colocalization is 75%.

What about the maximal activity [3] of the same binder?
The maximal activity was 44%.

What about the detection between antibody and aggregates [4] of the same binder?
The detection between antibody and aggregates was > 80%.
